This note sets out measurements from patent publication US12703750 (NORTHWESTERN UNIVERSITY, dated 2026).

Positions count from the first letter of the chain named. Names and notes keep the numbering of the source.

Test [1] concerns the target T1, Human IL13Rα2 (human, UniProt Q14627 27-343, limits assumed).
T1 construct: also called human recombinant IL13Rα2; Human IL13Ra2
T1 sequence (looked up): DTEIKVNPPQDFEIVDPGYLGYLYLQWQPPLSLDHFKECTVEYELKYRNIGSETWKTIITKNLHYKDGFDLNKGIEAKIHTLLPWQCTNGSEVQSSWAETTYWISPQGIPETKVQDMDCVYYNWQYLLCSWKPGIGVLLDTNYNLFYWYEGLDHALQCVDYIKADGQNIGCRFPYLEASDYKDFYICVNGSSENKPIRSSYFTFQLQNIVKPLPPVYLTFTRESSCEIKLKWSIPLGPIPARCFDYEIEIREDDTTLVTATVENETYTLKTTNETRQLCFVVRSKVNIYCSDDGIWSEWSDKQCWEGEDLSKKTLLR
In words: plate ELISA on human IL13Rα2, OD405, N=4 [continued) B]. For orientation: ELISA stands for enzyme-linked immunosorbent assay.

Test [2] has as its target T1, Human IL13Rα2. In words: SPR Biacore T200, 25 C, antibody captured on Protein A chip, IL13Ra2 analyte 0.625-80 nM.
Test [3] deals with T1, Human IL13Rα2. In words: SPR Biacore T200, purified IgG Fc-captured, IL13Rα2 as analyte.
Test [4] addresses T1, Human IL13Rα2. In words: SPR Biacore 8K affinity ranking, antibody supernatant Fc-captured, 100 nM IL13Rα2 analyte. (In general: In SPR one partner is held on a chip, and binding of the other changes the refractive index at the surface.)
In test [5] the target is T1, Human IL13Rα2. In words: plate ELISA on human recombinant IL13Rα2, OD405, N=4.
The target of test [6] is T1, Human IL13Rα2. In words: plate ELISA on human recombinant IL13Rα2, OD405, N=3.
Test [7] concerns the target T1, Human IL13Rα2. In words: SPR Biacore T200, antibody captured, IL13Rα2 analyte 0.9375-60 nM.

B1: Ab Vh1G56A-VL1W100F (antibody, human IgG1, kappa, V domains shown)
VH: QVQLVQSGAEVKKPGSSVKVSCKASGYTFSNYLMNWVRQAPGQGLEWMGRIDPYDADIDYNQNFKDRVTITADKSTSTAYMELSSLRSEDTAVYYCARGYGTAYGVDYWGQGTLVTVSS
VL: DIVMTQSPDSLAVSLGERATINCRASESVDNYGISFMNWYQQKPGQPPKLLIYAASRQGSGVPDRFSGSGSGTDFTLTISSLQAEDVAVYYCQQSKEVPFTFGGGTKLEIKR
notes: also called double mutant
In general, EC50 (read off the curve) refers to the concentration giving half of the maximal effect. As usually defined, the Kd is the free concentration of one partner at which half of the binding sites on the other are occupied at equilibrium, for simple one-to-one binding. Low readings indicate a tighter complex, high ones a looser complex. A word on the koff: it is the first-order rate constant of dissociation. A high value points to fast dissociation. In general, kon refers to the rate constant with which the complex forms. Read a low kon as slow association. With B1, in the test with Human IL13Rα2 [1], the “EC50 (read off the curve)” value was ~0.03 µg/mL. Moreover, in the test with Human IL13Rα2 [2], binding was characterised by a dissociation constant (Kd) of 0.277 nM, the koff turned out to be 0.000284 s⁻¹ and the kon was 1.02e+06 M⁻¹ s⁻¹.

B2: Humanized antibody VH2 + VL3 (antibody, human IgG1, kappa, V domains shown)
VH: B1 VH with S16A, G44R, A56G, A72R, K74T, T76A
VL: EIVLTQSPATLSLSPGERATLSCRASESVDNYGISFMNWYQQKPGQAPRLLIYAASRQGSGIPARFSGSGSGTDFTLTISSLEPEDFAVYYCQQSKEVPWTFGGGTKLEIKR
notes: also called U3621EI120 VH2+VL3
On to B2, for which, in the test with Human IL13Rα2 [3], binding was put at a Kd of 0.513 nM, the koff came out at 0.00042 s⁻¹ and the kon came out at 820000 M⁻¹ s⁻¹. In the test with Human IL13Rα2 [4], this molecule yielded a Kd of 1.17 nM, a koff of 0.000761 s⁻¹ and an association rate constant (kon) of 649000 M⁻¹ s⁻¹.

B3: Humanized antibody VH2 + VL2 (antibody, human IgG1, kappa, V domains shown)
VH: B1 VH with S16A, G44R, A56G, A72R, K74T, T76A
VL: DIQMTQSPSSLSASVGDRVTITCRASESVDNYGISFMNWYQQKPGKAPKLLIYAASRQGSGVPSRFSGSGSGTDFTLTISSLQPEDFATYYCQQSKEVPWTFGGGTKLEIKR
As to B3, in the test with Human IL13Rα2 [4], the dissociation constant Kd turned out to be 0.857 nM, the koff was 0.000555 s⁻¹ and the kon came to 648000 M⁻¹ s⁻¹.

B4: Humanized antibody VH3 + VL1 (antibody, human IgG1, kappa, V domains shown)
VH: B1 VH with S16A, A56G, I70M, A72R, K74T, A79V
VL: B1 VL with F100W
Turning to B4, in the test with Human IL13Rα2 [4], binding was characterised by a dissociation constant (Kd) of 0.661 nM, the koff was found to be 0.000595 s⁻¹ and the kon turned out to be 901000 M⁻¹ s⁻¹.

B5: Humanized antibody VH3 + VL3 (antibody, human IgG1, kappa, V domains shown)
VH: B1 VH with S16A, A56G, I70M, A72R, K74T, A79V
VL: B2 VL
Take B5: in the test with Human IL13Rα2 [4], the equilibrium dissociation constant (Kd) came to 1.13 nM, the koff came to 0.000702 s⁻¹ and the kon is 620000 M⁻¹ s⁻¹.

B6: Humanized antibody VH1-VL1 Q58E (antibody, human IgG1, kappa, V domains shown)
VH: B1 VH with A56G
VL: B1 VL with Q58E, F100W
In the case of B6, the binding result with Human IL13Rα2 [5] is recorded as “binds”.

B7: Humanized antibody VH2 + VL1 (antibody, human IgG1, kappa, V domains shown)
VH: B1 VH with S16A, G44R, A56G, A72R, K74T, T76A
VL: B1 VL with F100W
In the test with Human IL13Rα2 [4], B7 registered a Kd of 0.704 nM, a koff of 0.000417 s⁻¹ and a kon of 593000 M⁻¹ s⁻¹.

B8: Humanized antibody VH4 + VL4 (antibody, human IgG1, kappa, V domains shown)
VH: B1 VH with S16A, P41T, A56G, A72R, D73N, K74T, T76I
VL: B2 VL with L4M, L13V, D74E, E83Q, P84S
In the test with Human IL13Rα2 [4], B8 registered a Kd of 0.594 nM, a koff of 0.000501 s⁻¹ and a kon of 844000 M⁻¹ s⁻¹.

B9: Humanized antibody VH4 + VL3 (antibody, human IgG1, kappa, V domains shown)
VH: B1 VH with S16A, P41T, A56G, A72R, D73N, K74T, T76I
VL: B2 VL
In the test with Human IL13Rα2 [4], B9 showed a Kd of 0.877 nM, a koff of 0.000675 s⁻¹ and an on-rate constant (kon) of 769000 M⁻¹ s⁻¹.

B10: Humanized antibody VH1-VL1 M37A (antibody, human IgG1, kappa, V domains shown)
VH: B1 VH with A56G
VL: B1 VL with M37A, F100W
Take B10: the binding result in the test with Human IL13Rα2 [5] is “binds”.

B11: Humanized antibody VH4 + VL1 (antibody, human IgG1, kappa, V domains shown)
VH: B1 VH with S16A, P41T, A56G, A72R, D73N, K74T, T76I
VL: B1 VL with F100W
In the test with Human IL13Rα2 [4], B11 gave a Kd of 0.727 nM, a koff of 0.000424 s⁻¹ and a kon of 583000 M⁻¹ s⁻¹.

B12: Humanized antibody VH1 + VL4 (antibody, human IgG1, kappa, V domains shown)
VH: B1 VH with A56G
VL: B2 VL with L4M, L13V, D74E, E83Q, P84S
notes: also called U3621EI120 VH1+VL4
In the test with Human IL13Rα2 [3], B12 registered a Kd of 0.297 nM, a koff of 0.00022 s⁻¹ and a kon of 741000 M⁻¹ s⁻¹. In the test with Human IL13Rα2 [4], the affinity, expressed as Kd, was 0.599 nM; the koff came out at 0.000269 s⁻¹; the kon stood at 449000 M⁻¹ s⁻¹.

B13: Humanized antibody VH1(G56A) + VL1 (antibody, human IgG1, kappa, V domains shown)
VH: B1 VH
VL: B1 VL with F100W
notes: also called VHG56A-VL1; Humanized VHG56A-VL1
On to B13, for which, in the test with Human IL13Rα2 [6], the “EC50 (read off the curve)” value is ~0.02 µg/mL. In the test with Human IL13Rα2 [7], this molecule gave a Kd of 0.215 nM, a koff of 0.000156 s⁻¹ and a kon of 727000 M⁻¹ s⁻¹.

B14: Humanized antibody VH1 + VL3 (antibody, human IgG1, kappa, V domains shown)
VH: B1 VH with A56G
VL: B2 VL
In the test with Human IL13Rα2 [4], B14 showed a dissociation constant (Kd) of 0.9 nM, a koff of 0.000463 s⁻¹ and a kon of 514000 M⁻¹ s⁻¹.

B15: Humanized antibody VH2 + VL4 (antibody, human IgG1, kappa, V domains shown)
VH: B1 VH with S16A, G44R, A56G, A72R, K74T, T76A
VL: B2 VL with L4M, L13V, D74E, E83Q, P84S
In the test with Human IL13Rα2 [4], B15 yielded a Kd of 1.35 nM, a koff of 0.000748 s⁻¹ and a kon of 555000 M⁻¹ s⁻¹.

B16: Humanized antibody VH1-VL1 Q94E (antibody, human IgG1, kappa, V domains shown)
VH: B1 VH with A56G
VL: B1 VL with Q94E, F100W
Consider B16, for which the “EC50 (read off the curve)” value in the test with Human IL13Rα2 [5] is ~0.01 µg/mL.

B17: Humanized antibody VH4 + VL2 (antibody, human IgG1, kappa, V domains shown)
VH: B1 VH with S16A, P41T, A56G, A72R, D73N, K74T, T76I
VL: B3 VL
In the test with Human IL13Rα2 [4], B17 displayed a Kd of 0.597 nM, an off-rate constant (koff) of 0.000445 s⁻¹ and a kon of 746000 M⁻¹ s⁻¹.

B18: Humanized antibody VH1 M34A-VL1 (antibody, human IgG1, kappa, V domains shown)
VH: B1 VH with M34A, A56G
VL: B1 VL with F100W
notes: Antibody purified on protein A
Take B18: the “EC50 (read off the curve)” value with Human IL13Rα2 [5] is ~0.03 µg/mL.

B19: Humanized antibody VH3 + VL4 (antibody, human IgG1, kappa, V domains shown)
VH: B1 VH with S16A, A56G, I70M, A72R, K74T, A79V
VL: B2 VL with L4M, L13V, D74E, E83Q, P84S
With B19, in the test with Human IL13Rα2 [4], the affinity, expressed as Kd, was 0.984 nM; the koff was found to be 0.000615 s⁻¹; the kon turned out to be 625000 M⁻¹ s⁻¹.

B20: Humanized antibody VH1 D52E-VL1 (antibody, human IgG1, kappa, V domains shown)
VH: B1 VH with D52E, A56G
VL: B1 VL with F100W
notes: also called VH1 MD52E-VL1
B20: the “EC50 (read off the curve)” value in the test with Human IL13Rα2 [5] is ~0.04 µg/mL.

B21: Humanized antibody VH3 + VL2 (antibody, human IgG1, kappa, V domains shown)
VH: B1 VH with S16A, A56G, I70M, A72R, K74T, A79V
VL: B3 VL
B21: in the test with Human IL13Rα2 [4], binding was characterised by a dissociation constant (Kd) of 0.698 nM, the koff came out at 0.000595 s⁻¹ and the kon was 852000 M⁻¹ s⁻¹.

B22: Humanized antibody VH1 + VL2 (antibody, human IgG1, kappa, V domains shown)
VH: B1 VH with A56G
VL: B3 VL
As to B22, in the test with Human IL13Rα2 [4], the Kd was found to be 0.758 nM, the koff amounted to 0.000312 s⁻¹ and the kon is 412000 M⁻¹ s⁻¹.
